Experimental data: the DeepSol protein solubility set

assay: soluble on expression in E. coli; label from the status in PepcDB or PDB records

Soluble on expression in E. coli, not soluble:
MGSDKIHHHHHHMTEKWLSIVGIGEDGLQGLSAIARSLVDRAKVIVGGDRHLAMLPTDDQREKIVWTSPISISVDEIIQRRGQSICVLASGDPMCYGIGVTLMRRIPVSEMTIIPAPSAFSLACARMGWSLTEVETLSLNGRPSSLLQSYIYPKARLLILSGGKDTPAIVAKILTNRGYGGSEITVLERMGGTHERIVEGTAASWSETEVAALNAIAVYCIADAGVIPLPRLPGLPDNAYHHDGQLTKREVRAITLAALAPTPGQLLWDVGAGCGSISIEWMRSNARCRAIAIEQNSSRLLYIADNAATLGTPNVQIIEGKAPHALKDLPAPDAIFIGGGVTATGLFDVCWEALRPGGRLVANVVTVEGEQTLFQWHERVGGDLTRVAIQRTEPIGKFLGWRAMAPVTQWVVVK
MGSDKIHHHHHHMTENNGFQQHVAKVYREHRGERIVPFEYQGKRYWLKQVEHLAGAMRLLKQNSTAALHKEIGILNTLSHIGAPVPAVVDYGDGYMVVEDVGNTINHLLDHTSQALWQPILNDVSVALAKLHSMQLAHGRPALRDISWQAGEVKFIDFEANQQHKSVVSQQVRDVLVFIHSLYRYIGPNNRMINQAIACYRLAGGEAIWQKAKQFLASWQWLYYFARPFRDFGGKDLKPVYWVLWHFRQAPLTLA
MGSDKIHHHHHHMTEQVVATETVNLSQDSLQIAAYLAQPQAPGSYPGVVVLQEIFGVNGHIRDVTERIAKLGYVAIAPALFQRQAPGFETGYTPQDIEVGRGYAMQTKASELLNDIQAAIDYLKTLPQVKQNGFGCIGFCFGGHVAYLAATLPDIKATASFYGAGIATRTFGGGNPTVTRTPEIKGTLYGFFGTEDASIPPEQIDQIETELEKYNISHRVFRYDGADHGFFCDRRASYNPQAAADAWEQVQQLFKTVLTT
MGSDKIHHHHHHMTETLVQVQKLAMDFPGQKLFNNLSFDVDRRDFLSIIGENGVGKTTLIRALLNQVKPTSGSIKFRKGTKVGYVPQFRNIERDYPLSIRDFVALNLQNGKMPWLSKMERTQLDEILEETDLVDIQNTRIGRASGGQKQKAYLAQALVDNPDLLILDESTASLDTVRKYELFNLVQHFNQQHDLTVISVTHDFDLMQRYSNRYLMLKEDHYALGEVADIKNEEDLLDV
MGSDKIHHHHHHMTFEQLLYAVELANHQTLQETADLLHISKSGLSQSISQLENELGVKLFKRTRYGSKLTAQGKELLPLIKQMLSQGVSLTKKAHNLGKSGQIETVRVAYANTMLKPFLNEYLAMYQDVPTKFNMEISQETVTQIIDGIRSHRINLGFIAINDSNKAEIHGLEFKPVHVGHLKLFLSPDNQLVKKQKINIEDLQKQRFALFNDPYNDRIFEHLQYLCGPLKTVIKTDDGWAMYTTIKKANAVALVRDWQTSYSSYEPLQKLPSLDISNLIDDRFYLGWLTNPKYTTSRYTHRYTQEFIKHVDAQIKEC
MGSDKIHHHHHHMTIFSVRHITSYRYKRPVEFGEHRLMFRPRDSFDQTLLSSHLDVDPKPDYIRWIHDVFGNCVALVGFTGKARELCFGTNIRLDHTQQVEMDLQIDAEALHYPFAYDPEEVVDLERTIKRHFADPDDEVGRWTRQFVRIGQPTETGRLLMTLCYAIHESFIYARRLEHGTQTPLETLRLRRGTCRDFALLMMEAARSLGLAARFVTGYIYVPDRDGSTKLGGGSTHAWCQVYLPGAGWVEFDPTNGIVGNRDLIRVGVARDPKQAVPLSGSYDGDASDFDTMSVQVNVTTDKLSDTAA
MGSDKIHHHHHHMTKESILTFSQSKAEPAWLQEKRLAAFDKIDDLELPRIERVKFQRWNLGDGTITESPISANVPDFTSFGENPKLVQLGTQTVLESLPAKLVEQGVVFTDFHSALEEIPQVIEKYFATALKFDEDKLSAYHTAYFNSGSVLYVPDNVEIDLPLEGIFLQDSTSNVPLNKHVLIIAGRHAKVNYLERFETIGDSDVKATANIAVEVLAQAGSQVKFAAIDRLGNNITTYISRRGRLDNDASIDWALGVMNEGNVIADFDSDLIGNGSHAELKVVAASSGRQIQGIDTRVTNYGNNSIGHILQHGVILERGTLTFNGIGHIIKGAKGADAQQESRVLMLSDKARSDANPILLIDENEVTAGHAASIGQVDPEDMYYLMSRGIDKETAERLVIRGFLGTVITEIPVKAVRDEMIAVLDEKLDKR
